Laboratory results published in paper PMC11527279, “The SARS-CoV-2 ORF6 protein inhibits nuclear export of mRNA and spliceosomal U snRNA” (PLOS ONE, 2024).

Molecular target: T1, GST-T7-ORF6-His (SARS-CoV-2, UniProt P0DTC6 1-61)
T1 construct: ORF6 protein of SARS-CoV-2, full-length recombinant protein; pGEX-T7-ORF6-His; T7 tag lies between GST and ORF6; also called GST-ORF6; not shown: GST, N-terminal, kept; T7, N-terminal, kept; His6, C-terminal, kept
T1 sequence: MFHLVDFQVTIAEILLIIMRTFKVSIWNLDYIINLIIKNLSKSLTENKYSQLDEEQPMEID
Settings: both partners purified

B1: T7-ORF6-His (natural protein)
chain: MFHLVDFQVTIAEILLIIMRTFKVSIWNLDYIINLIIKNLSKSLTENKYSQLDEEQPMEID
notes: ORF6 protein of SARS-CoV-2, full-length recombinant protein; From pGEX-T7-ORF6-His (pGEX-6p-1 backbone); also called SARS-CoV-2 ORF6 protein; not shown: GST, N-terminal, cleaved; T7, N-terminal, kept; His6, C-terminal, kept
binding result: binds
